Results taken from article PMC4360782, “A new high-performance heterologous fungal expression system based on regulatory elements from the Aspergillus terreus terrein gene cluster”.

How the values were obtained:
TerR35-138 [1] = biological target: T1, TerR35-138 (Aspergillus terreus SBUG844, UniProt Q0D1P5 35-138); assay: SPR; molar ratio 1.62; SPR (Biacore 2000, SA-coated CM3 chip): 10 mM HEPES pH 7.4, 150 mM NaCl, 0.005% P20, 5 mM beta-mercaptoethanol, 1 uM ZnCl2, 25 C; protein 12.5-6400 nM; 1:1 model with mass transport; details: protein: recombinant; (pET-29a; theoretical mass 11.35 kDa); label: biotin on one strand; 18 bp duplex
T1 sequence: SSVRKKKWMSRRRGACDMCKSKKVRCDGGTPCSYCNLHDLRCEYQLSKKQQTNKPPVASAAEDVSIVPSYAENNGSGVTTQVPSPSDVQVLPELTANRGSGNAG

TerR43-138 [2] = biological target: T2, TerR43-138 (Aspergillus terreus SBUG844, UniProt Q0D1P5 43-138); assay: SPR; molar ratio 0.85; SPR (Biacore 2000, SA-coated CM3 chip): 10 mM HEPES pH 7.4, 150 mM NaCl, 0.005% P20, 5 mM beta-mercaptoethanol, 1 uM ZnCl2, 25 C; protein 12.5-6400 nM; 1:1 model with mass transport; details: protein: recombinant; (pET-29a; mass used 10218 Da); label: biotin on one strand; 18 bp duplex
T2 sequence: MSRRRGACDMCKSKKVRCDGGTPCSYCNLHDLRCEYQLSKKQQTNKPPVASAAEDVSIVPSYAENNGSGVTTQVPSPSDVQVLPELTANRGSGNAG

TerR35-138 [3] = biological target: T1, TerR35-138; assay: SPR; molar ratio 1.93; SPR (Biacore 2000, SA-coated CM3 chip): 10 mM HEPES pH 7.4, 150 mM NaCl, 0.005% P20, 5 mM beta-mercaptoethanol, 1 uM ZnCl2, 25 C; protein 12.5-6400 nM; 1:1 model with mass transport; details: protein: recombinant; (pET-29a; theoretical mass 11.35 kDa); label: biotin on one strand; 18 bp duplex
TerR35-138 [4] = biological target: T1, TerR35-138; assay: SPR; molar ratio 0.92; SPR (Biacore 2000, SA-coated CM3 chip): 10 mM HEPES pH 7.4, 150 mM NaCl, 0.005% P20, 5 mM beta-mercaptoethanol, 1 uM ZnCl2, 25 C; protein 12.5-6400 nM; 1:1 model with mass transport; details: protein: recombinant; (pET-29a; theoretical mass 11.35 kDa); label: biotin on one strand; 18 bp duplex
TerR35-138 [5] = biological target: T1, TerR35-138; assay: SPR; molar ratio 1.87; SPR (Biacore 2000, SA-coated CM3 chip): 10 mM HEPES pH 7.4, 150 mM NaCl, 0.005% P20, 5 mM beta-mercaptoethanol, 1 uM ZnCl2, 25 C; protein 12.5-6400 nM; 1:1 model with mass transport; details: protein: recombinant; (pET-29a; theoretical mass 11.35 kDa); label: biotin on one strand; 18 bp duplex
TerR35-138 [6] = biological target: T1, TerR35-138; assay: SPR; molar ratio 1.38; SPR (Biacore 2000, SA-coated CM3 chip): 10 mM HEPES pH 7.4, 150 mM NaCl, 0.005% P20, 5 mM beta-mercaptoethanol, 1 uM ZnCl2, 25 C; protein 12.5-6400 nM; 1:1 model with mass transport; details: protein: recombinant; (pET-29a; theoretical mass 11.35 kDa); label: biotin on one strand; 18 bp duplex
TerR43-138 [7] = biological target: T2, TerR43-138; assay: SPR; molar ratio 0.95; SPR (Biacore 2000, SA-coated CM3 chip): 10 mM HEPES pH 7.4, 150 mM NaCl, 0.005% P20, 5 mM beta-mercaptoethanol, 1 uM ZnCl2, 25 C; protein 12.5-6400 nM; 1:1 model with mass transport; details: protein: recombinant; (pET-29a; mass used 10218 Da); label: biotin on one strand; 18 bp duplex
TerR35-138 [8] = biological target: T1, TerR35-138; assay: as above; details: protein: recombinant; (pET-29a; theoretical mass 11.35 kDa); label: biotin on one strand; 18 bp duplex
TerR35-138 [9] = biological target: T1, TerR35-138; assay: SPR; molar ratio 1.12; SPR (Biacore 2000, SA-coated CM3 chip): 10 mM HEPES pH 7.4, 150 mM NaCl, 0.005% P20, 5 mM beta-mercaptoethanol, 1 uM ZnCl2, 25 C; protein 12.5-6400 nM; 1:1 model with mass transport; details: protein: recombinant; (pET-29a; theoretical mass 11.35 kDa); label: biotin on one strand; 18 bp duplex
TerR43-138 [10] = biological target: T2, TerR43-138; assay: SPR; molar ratio 1.04; SPR (Biacore 2000, SA-coated CM3 chip): 10 mM HEPES pH 7.4, 150 mM NaCl, 0.005% P20, 5 mM beta-mercaptoethanol, 1 uM ZnCl2, 25 C; protein 12.5-6400 nM; 1:1 model with mass transport; details: protein: recombinant; (pET-29a; mass used 10218 Da); label: biotin on one strand; 18 bp duplex
TerR35-138 [11] = biological target: T1, TerR35-138; assay: SPR; molar ratio 1.74; SPR (Biacore 2000, SA-coated CM3 chip): 10 mM HEPES pH 7.4, 150 mM NaCl, 0.005% P20, 5 mM beta-mercaptoethanol, 1 uM ZnCl2, 25 C; protein 12.5-6400 nM; 1:1 model with mass transport; details: protein: recombinant; (pET-29a; theoretical mass 11.35 kDa); label: biotin on one strand; 18 bp duplex
TerR43-138 [12] = biological target: T2, TerR43-138; assay: SPR; molar ratio 1.06; SPR (Biacore 2000, SA-coated CM3 chip): 10 mM HEPES pH 7.4, 150 mM NaCl, 0.005% P20, 5 mM beta-mercaptoethanol, 1 uM ZnCl2, 25 C; protein 12.5-6400 nM; 1:1 model with mass transport; details: protein: recombinant; (pET-29a; mass used 10218 Da); label: biotin on one strand; 18 bp duplex
TerR35-138 [13] = biological target: T1, TerR35-138; assay: SPR; molar ratio 1.17; SPR (Biacore 2000, SA-coated CM3 chip): 10 mM HEPES pH 7.4, 150 mM NaCl, 0.005% P20, 5 mM beta-mercaptoethanol, 1 uM ZnCl2, 25 C; protein 12.5-6400 nM; 1:1 model with mass transport; details: protein: recombinant; (pET-29a; theoretical mass 11.35 kDa); label: biotin on one strand; 18 bp duplex
TerR35-138 [14] = biological target: T1, TerR35-138; assay: SPR; molar ratio 1.51; SPR (Biacore 2000, SA-coated CM3 chip): 10 mM HEPES pH 7.4, 150 mM NaCl, 0.005% P20, 5 mM beta-mercaptoethanol, 1 uM ZnCl2, 25 C; protein 12.5-6400 nM; 1:1 model with mass transport; details: protein: recombinant; (pET-29a; theoretical mass 11.35 kDa); label: biotin on one strand; 18 bp duplex
TerR43-138 [15] = biological target: T2, TerR43-138; assay: SPR; molar ratio 0.92; SPR (Biacore 2000, SA-coated CM3 chip): 10 mM HEPES pH 7.4, 150 mM NaCl, 0.005% P20, 5 mM beta-mercaptoethanol, 1 uM ZnCl2, 25 C; protein 12.5-6400 nM; 1:1 model with mass transport; details: protein: recombinant; (pET-29a; mass used 10218 Da); label: biotin on one strand; 18 bp duplex
TerR43-138 [16] = biological target: T2, TerR43-138; assay: SPR; molar ratio 0.91; SPR (Biacore 2000, SA-coated CM3 chip): 10 mM HEPES pH 7.4, 150 mM NaCl, 0.005% P20, 5 mM beta-mercaptoethanol, 1 uM ZnCl2, 25 C; protein 12.5-6400 nM; 1:1 model with mass transport; details: protein: recombinant; (pET-29a; mass used 10218 Da); label: biotin on one strand; 18 bp duplex
TerR35-138 [17] = biological target: T1, TerR35-138; assay: SPR; molar ratio 1.25; SPR (Biacore 2000, SA-coated CM3 chip): 10 mM HEPES pH 7.4, 150 mM NaCl, 0.005% P20, 5 mM beta-mercaptoethanol, 1 uM ZnCl2, 25 C; protein 12.5-6400 nM; 1:1 model with mass transport; details: protein: recombinant; (pET-29a; theoretical mass 11.35 kDa); label: biotin on one strand; 18 bp duplex
TerR35-138 [18] = biological target: T1, TerR35-138; assay: SPR; molar ratio 1.14; SPR (Biacore 2000, SA-coated CM3 chip): 10 mM HEPES pH 7.4, 150 mM NaCl, 0.005% P20, 5 mM beta-mercaptoethanol, 1 uM ZnCl2, 25 C; protein 12.5-6400 nM; 1:1 model with mass transport; details: protein: recombinant; (pET-29a; theoretical mass 11.35 kDa); label: biotin on one strand; 18 bp duplex
TerR43-138 [19] = biological target: T2, TerR43-138; assay: SPR; molar ratio 0.88; SPR (Biacore 2000, SA-coated CM3 chip): 10 mM HEPES pH 7.4, 150 mM NaCl, 0.005% P20, 5 mM beta-mercaptoethanol, 1 uM ZnCl2, 25 C; protein 12.5-6400 nM; 1:1 model with mass transport; details: protein: recombinant; (pET-29a; mass used 10218 Da); label: biotin on one strand; 18 bp duplex
TerR35-138 [20] = biological target: T1, TerR35-138; assay: SPR; molar ratio 1.19; SPR (Biacore 2000, SA-coated CM3 chip): 10 mM HEPES pH 7.4, 150 mM NaCl, 0.005% P20, 5 mM beta-mercaptoethanol, 1 uM ZnCl2, 25 C; protein 12.5-6400 nM; 1:1 model with mass transport; details: protein: recombinant; (pET-29a; theoretical mass 11.35 kDa); label: biotin on one strand; 18 bp duplex

B1: BS6 (dsDNA)
DNA 1: CTCTCGGAAACTCGGAAA
DNA 2: TTTCCGAGTTTCCGAGAG
Kd (TerR35-138 [1]): 150 ± 1 nM | Kd (TerR43-138 [2]): 2050 ± 90 nM

B2: BS2m1 (5'-CGG to CAA) (dsDNA)
DNA 1: TTATCAAACTTTCGGATT
DNA 2: AATCCGAAAGTTTGATAA
Kd (TerR35-138 [3]): 5780 ± 60 nM

B3: BS7m (second CGG half-site mutated) (dsDNA)
DNA 1: ACTTCGGCTATCCAATTA
DNA 2: TAATTGGATAGCCGAAGT
Kd (TerR35-138 [4]): 25.3 ± 0.2 nM

B4: BS5 (dsDNA)
DNA 1: GGGGCGGCTCCTCGGTAC
DNA 2: GTACCGAGGAGCCGCCCC
Kd (TerR35-138 [5]): 1530 ± 60 nM

B5: BS4m1 (TT before 5'-CGG to GG) (dsDNA)
DNA 1: TGGGCGGCAATACGGACT
DNA 2: AGTCCGTATTGCCGCCCA
Kd (TerR35-138 [6]): 429 ± 2 nM | Kd (TerR43-138 [7]): 9300 ± 1000 nM

B6: BS2m2 (3'-CGG to CAA) (dsDNA)
DNA 1: TTATCGGACTTTCAAATT
DNA 2: AATTTGAAAGTCCGATAA
Kd (TerR35-138 [8]): 363 ± 2 nM

B7: BS1 (dsDNA)
DNA 1: GAGTCGGCATTACGGCGG
DNA 2: CCGCCGTAATGCCGACTC
Kd (TerR35-138 [9]): 527 ± 3 nM

B8: BS2 (dsDNA)
DNA 1: TTATCGGACTTTCGGATT
DNA 2: AATCCGAAAGTCCGATAA
Kd (TerR43-138 [10]): 3730 ± 30 nM | Kd (TerR35-138 [1]): 536 ± 3 nM

B9: BS3 (dsDNA)
DNA 1: GAGACGGAAACTCGGGTT
DNA 2: AACCCGAGTTTCCGTCTC
Kd (TerR35-138 [11]): 676 ± 3 nM

B10: BS8 (dsDNA)
DNA 1: CGGGCGGTTAGGCGGCAT
DNA 2: ATGCCGCCTAACCGCCCG
Kd (TerR43-138 [12]): 17200 ± 500 nM | Kd (TerR35-138 [13]): 286 ± 2 nM

B11: BS9 (dsDNA)
DNA 1: GCTTCGGTAATTCGGTAA
DNA 2: TTACCGAATTACCGAAGC
Kd (TerR35-138 [14]): 41 ± 0.4 nM | Kd (TerR43-138 [15]): 820 ± 4 nM

B12: BS7 (dsDNA)
DNA 1: ACTTCGGCTATCCGGTTA
DNA 2: TAACCGGATAGCCGAAGT
Kd (TerR43-138 [16]): 591 ± 2 nM | Kd (TerR35-138 [17]): 26.5 ± 0.3 nM

B13: BS4 (dsDNA)
DNA 1: TCTTCGGCAATACGGACT
DNA 2: AGTCCGTATTGCCGAAGA
Kd (TerR35-138 [18]): 65.6 ± 0.6 nM | Kd (TerR43-138 [19]): 1070 ± 60 nM

B14: BS4m2 (C directly after 5'-CGG to G) (dsDNA)
DNA 1: TCTTCGGGAATACGGACT
DNA 2: AGTCCGTATTCCCGAAGA
Kd (TerR43-138 [19]): 1370 ± 50 nM | Kd (TerR35-138 [20]): 155 ± 1 nM
